From patent publication US20220220218A1 (JIANGSU HENGRUI MEDICINE, published 2022) come the findings set out here.

For test [1], the target named is T1, cynomolgus monkey CD73/NT5E protein (His tag), Sino Biological Cat. No. 90192-C08H (cynomolgus monkey, UniProt A0A2K5V5U7 27-547).
T1 construct: also called cynomolgus monkey CD73 protein; cynoCD73; not shown: His tag
T1 sequence: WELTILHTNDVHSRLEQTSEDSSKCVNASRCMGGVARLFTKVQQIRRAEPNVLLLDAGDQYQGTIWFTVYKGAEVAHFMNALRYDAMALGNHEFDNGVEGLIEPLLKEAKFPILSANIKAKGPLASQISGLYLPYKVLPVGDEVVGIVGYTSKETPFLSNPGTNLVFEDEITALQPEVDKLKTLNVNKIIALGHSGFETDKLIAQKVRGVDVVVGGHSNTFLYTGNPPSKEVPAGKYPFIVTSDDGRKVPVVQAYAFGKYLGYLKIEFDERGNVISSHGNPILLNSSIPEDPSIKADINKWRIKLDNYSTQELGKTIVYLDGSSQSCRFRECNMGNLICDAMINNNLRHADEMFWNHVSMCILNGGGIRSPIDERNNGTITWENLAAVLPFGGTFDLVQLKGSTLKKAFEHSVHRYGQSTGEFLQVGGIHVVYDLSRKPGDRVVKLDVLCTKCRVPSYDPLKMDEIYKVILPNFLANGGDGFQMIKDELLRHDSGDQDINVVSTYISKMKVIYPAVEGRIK
As to the kind of experiment: ELISA; cynomolgus monkey CD73 coated on plate. The protocol: The cross-binding activity of anti-CD73 antibodies to cynomolgus monkey CD73 protein was tested by ELISA assay. The cynomolgus monkey CD73 fusion protein was directly coated onto a 96-well microtiter plate. The signal strength after the addition of the antibody was used to determine the binding activity of the antibody to cynomolgus monkey CD73. The specific experimental procedures were as follows:
Cynomolgus monkey CD73 (Sino Biological, Cat No. 90192-C08H) was diluted with PBS, pH7.4 (Shanghai BasalMedia, Cat No. B320) buffer to a concentration of 2 μg/ml, was added into the 96-well microtiter plate at 50 μl/well, and was incubated in an incubator at 37° C. for 2 hours. The liquid was discarded, 250 μl/well blocking solution (5% skim milk diluted in PBS) was added, and incubated in an incubator at 37° C. for 3 hours or at 4° C. overnight (16-18 hours) for blocking. After the blocking was finished, the blocking solution was discarded, the plate was washed for 5 times with PBST buffer, 50 μl/well of various concentrations of each of the test antibodies (purified hybridoma antibodies or humanized antibodies, diluted with sample diluent) were added, and incubated in an incubator at 37° C. for 1 hour. After the incubation was finished, the plate was washed for 5 times with PBST, 50 μl/well of HRP-labeled goat anti-mouse secondary antibody (Jackson Immuno Research, Cat No. 115-035-003) or goat anti-human secondary antibody (Jackson Immuno Research, Cat No. 109-035-003) diluted with sample diluent was added, and incubated at 37° C. for 1 hour. The plate was washed for 5 times with PBST, 50 μl/well of TMB chromogenic substrate (KPL, Cat No. 52-00-03) was added, incubated at room temperature for 5-10 min, and 50 μl/well of 1M H₂SO₄ was added to stop the reaction. The absorbance value was read by a microplate reader (Molecular Devices, VERSA max) at a wavelength of 450 nm, and the data was analyzed with GraphPad Prism 5. The binding of anti-CD73 antibody to monkey CD73 was calculated as EC50 value.
A general note: In an ELISA, binding on a coated surface is turned into a signal by an enzyme label.

For test [2], the target named is T2, human CD73 on tumor cell line MDA-MB-231 that highly expresses human CD73 (human, UniProt P21589 27-549).
T2 sequence (looked up): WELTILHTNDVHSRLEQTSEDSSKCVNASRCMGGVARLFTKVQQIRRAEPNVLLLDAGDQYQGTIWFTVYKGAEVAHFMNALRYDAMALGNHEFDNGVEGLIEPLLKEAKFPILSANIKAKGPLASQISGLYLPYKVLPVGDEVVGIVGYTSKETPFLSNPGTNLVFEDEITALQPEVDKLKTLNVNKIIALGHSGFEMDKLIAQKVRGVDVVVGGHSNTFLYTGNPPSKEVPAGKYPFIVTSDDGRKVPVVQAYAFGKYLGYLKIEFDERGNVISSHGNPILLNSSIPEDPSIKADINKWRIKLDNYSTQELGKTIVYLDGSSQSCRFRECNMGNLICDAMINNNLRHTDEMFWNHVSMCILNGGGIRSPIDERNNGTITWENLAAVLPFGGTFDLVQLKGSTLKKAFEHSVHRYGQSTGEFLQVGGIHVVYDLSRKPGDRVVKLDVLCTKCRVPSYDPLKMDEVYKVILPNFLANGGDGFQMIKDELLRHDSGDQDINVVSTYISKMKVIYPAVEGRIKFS
As to the kind of experiment: cell-based or functional assay.

Test [3] deals with T1, cynomolgus monkey CD73/NT5E protein …. Briefly: SPR Biacore T200; antibody captured on Protein A chip, cynoCD73 in flow; 1:1 Langmuir. From the text:
In this experiment, Biacore instrument was used to determine the affinity of the humanized anti-CD73 antibodies to be tested with human CD73 (huCD73) and monkey CD73 (cynoCD73).
A certain amount of test antibody was affinity-captured with Protein A biosensing chip (Cat. #29127556, GE), and then a certain concentration of human or monkey CD73 antigen was allowed to flow through the surface of the chip. The reaction signals were detected in real time with Biacore instrument (Biacore T200, GE) to generate a binding and dissociation curve. At the end of each cycle, after the dissociation was completed, the biosensor chip was washed and regenerated with Glycine-HCl, pH1.5 (Cat. #BR-1003-54, GE). The running buffer for the assay was 1×HBS-EP buffer solution (Cat. #BR-1001-88, GE).
The data obtained from the experiment was fitted against (1:1) Langmuir model using GE Biacore T200 Evaluation version 3.0 software, and the affinity values were obtained, as shown in Table 12 and Table 13 for details.

B1: Hab108.64 (antibody, human IgG1, kappa, V domains shown)
VH: EVTLKQSGPGLVKPTETLTLTCTVSGFSLSSYGIQWVRQPPGKGLEWLGVIWSGGSADYNAAFISRLTISKDTSKSQVVLTMTNMDPVDTATYYCAGQYGSVWGQGTLVTVSS
VL: DIQMTQSPSSLSASVGDRVTITCRASQDIGDRLNWLQQKPGGAIKRLIYATSSLDSGVPKRFSGSGSGTEYTLTISSLQPEDFATYYCLQYAGSWTFGGGTKVEIKR
notes: also called humanized antibody of mab108
The term EC50 denotes the concentration needed to bring the measured effect to its halfway point. As usually defined, the Kd is the constant that tells how readily two partners part at equilibrium. What is called koff is a measure of how fast the partners let go of each other. As usually defined, the kon is the rate constant with which the complex forms. The molecule B1 returned an EC50 in test [1] of 0.033 nM. For the same molecule, in test [2], the “IC50 (nM) in the assay showing the inhibition of enzyme activity in MDA-MB-231 cell” value worked out at 0.53 nM. Further, in test [3], the Kd was 0.166 nM, the koff came out at 4.24e-05 s⁻¹ and the kon was 256000 M⁻¹ s⁻¹.

B2: Hab110.21 (antibody, human IgG1, kappa, V domains shown)
VH: EVQLVQSGAEVKKPGASVKVSCKASGYTFTSYTMHWVRQAPGQRLEWMGYINPNSFYIEYNQKFKDRVTITRDTSASTAYMELSSLRSEDTAVYYCARGDYDLFYDMDNWGQGTTVTVSS
VL: DIQMTQSPSSLSASVGDRVTITCRASQDIGNSLNWLQQKPGKAIKRLIYATFRLDSGVPSRFSGSRSGTEYTLTISSLQPEDFATYYCQQYASFPWTFGGGTKVEIKR
notes: also called humanized antibody of mab110
The molecule B2 registered an EC50 in test [1] of 0.064 nM. Also, the “IC50 (nM) in the assay showing the inhibition of enzyme activity in MDA-MB-231 cell” value in test [2] worked out at 0.329 nM. Also, in test [3], binding was characterised by a dissociation constant (Kd) of 0.0489 nM, the koff was found to be 3.45e-05 s⁻¹ and the kon was 704000 M⁻¹ s⁻¹.

B3: Hab127.31d (antibody, human IgG1, kappa, V domains shown)
VH: EVQLVQSGAEVKKPGASVKVSCKASGYTFTAYFMNWVRQAPGQGLEWMGRIYHNKGDTFYSQKFKGRVTMTVDKSTSTVYMELSSLRSEDTAVYYCATSYVGDWGQGTTVTVSS
VL: DIQMTQSPSSLSASVGDRVTITCRASQDIGDSLNWLQQKPGGALKRLIYATSSLDSGVPSRFSGSGSGTEYTLTISSLQPEDFATYYCLQYASFPWTFGGGTKVEIKR
notes: also called humanized antibody of mab127
B3 came in with an EC50 in test [1] of 0.033 nM. In test [2], the “IC50 (nM) in the assay showing the inhibition of enzyme activity in MDA-MB-231 cell” value was 0.505 nM. Moreover, in test [3], the affinity, expressed as Kd, was 0.0699 nM; the koff was 1.86e-05 s⁻¹; the kon stood at 266000 M⁻¹ s⁻¹.

B4: CPX006 (antibody CPX-006 disclosed in patent application WO2018013611) (antibody, V domains shown)
VH: QVQLVQSGAEVEKPGASVKVSCKASGYTFTSYWITWVRQAPGQGLEWMGDIYPGSGNTNYNEKFKTRVTITADKSTSTAYMELSSLRSEDTAVYYCAKEGGLTTEDYALDYWGQGTLVTVSS
VL: EIVLTQSPATLSLSPGERATLSCRASKNVSTSGYSYMHWYQQKPGQAPRLLIYLASNLESGIPPRFSGSGYGTDFTLTINNIESEDAAYYFCQHSRELPFTFGQGTKVEIKR
On to B4, for which the “IC50 (nM) in the assay showing the inhibition of enzyme activity in MDA-MB-231 cell” value in test [2] came to 10.2 nM.
